Experimental findings from the Human Domainome abundance scans (Beltran et al. 2025) are described below.

± gives the uncertainty stated by the source.

The labels stand for the following.
B1: Lysine-specific demethylase 5C, residues 319 to 373; numbered along this chain, P41229 (parent)
chain: AQFIESYVCRMCSRGDEDDKLLLCDGCDDNYHIFCLLPPLPEIPKGVWRCPKCVM

The variants in this data set derive from B1. In words: abundance fitness (aPCA) (normalised: wild type 0, dead -1); higher = more abundant; growth selection in yeast, the domain comes from the species named. As to conditions: Homo sapiens.
With G26M, the abundance fitness is -0.178 ± 0.17.

Turning to G26I, the abundance fitness is -0.21 ± 0.18.

Turning to G26C, the abundance fitness amounted to 0.017 ± 0.25.

On to D28N, for which the abundance fitness is 0.046 ± 0.19.

For D28L, the abundance fitness was -0.294 ± 0.18.

Take I43K: the abundance fitness is -0.101 ± 0.14.

For I43A, the abundance fitness was -0.281 ± 0.18.

I43H: the abundance fitness is -0.139 ± 0.17.

I43S: the abundance fitness is -0.082 ± 0.11.

For the variant P51K, the abundance fitness was 0.131 ± 0.19.

On to P51G, for which the abundance fitness was -0.494 ± 0.18.

On to P51A, for which the abundance fitness was -0.258 ± 0.17.

On to D16G, for which the abundance fitness stood at 0.085 ± 0.1.

On to D16Q, for which the abundance fitness is -0.16 ± 0.14.

As for D16S, the abundance fitness was 0.104 ± 0.093.

For P39K, the abundance fitness was 0.148 ± 0.17.

P39N: the abundance fitness is -0.045 ± 0.17.

With P39T, the abundance fitness was -0.599 ± 0.17.

Take V54Y: the abundance fitness was -0.064 ± 0.26.

As to V54F, the abundance fitness was -0.479 ± 0.24.

Take V54C: the abundance fitness is -0.097 ± 0.25.

V54K: the abundance fitness is -0.024 ± 0.21.

On to R10D, for which the abundance fitness is -0.384 ± 0.33.

In the case of D19N, the abundance fitness is 0.04 ± 0.1.

Turning to D19R, the abundance fitness is -0.03 ± 0.081.

Turning to D19M, the abundance fitness is -0.254 ± 0.1.

Consider K52N, for which the abundance fitness is -0.032 ± 0.21.

With K52L, the abundance fitness is -0.282 ± 0.12.

Turning to K52W, the abundance fitness is -0.364 ± 0.16.

With K52I, the abundance fitness is 0.006 ± 0.21.

K52G: the abundance fitness was -0.024 ± 0.085.

Take C9V: the abundance fitness was -0.792 ± 0.15.

Take C27I: the abundance fitness is -0.923 ± 0.41.

In the case of C27Y, the abundance fitness was -0.779 ± 0.21.

C27S: the abundance fitness is -0.823 ± 0.14.

Consider C27M, for which the abundance fitness was -0.507 ± 0.19.

As to W48R, the abundance fitness was -0.611 ± 0.13.

For V8C, the abundance fitness was -0.258 ± 0.16.

For the variant V8P, the abundance fitness was -0.12 ± 0.095.

Take V8A: the abundance fitness is -0.092 ± 0.097.

Regarding V8L, the abundance fitness was -0.243 ± 0.11.

On to V8I, for which the abundance fitness is -0.241 ± 0.14.

As to Y7M, the abundance fitness turned out to be 0.078 ± 0.2.

For Y7T, the abundance fitness amounted to 0.199 ± 0.12.

I4K: the abundance fitness is -0.033 ± 0.18.

As for I4N, the abundance fitness is -0.35 ± 0.18.

For the variant I4G, the abundance fitness is -0.302 ± 0.2.

L23A: the abundance fitness is 0.044 ± 0.1.

On to L23F, for which the abundance fitness was -0.405 ± 0.27.

With C53M, the abundance fitness was -0.713 ± 0.34.

For the variant C53D, the abundance fitness was -0.889 ± 0.28.

Consider R49H, for which the abundance fitness was -0.134 ± 0.19.

For H32E, the abundance fitness is -0.945 ± 0.21.

In the case of H32Q, the abundance fitness was -0.756 ± 0.22.

For the variant H32K, the abundance fitness was -0.97 ± 0.23.

In the case of G46M, the abundance fitness is -0.235 ± 0.18.

Take L22P: the abundance fitness was -0.897 ± 0.2.

For the variant L22C, the abundance fitness is -0.052 ± 0.13.

Turning to L22K, the abundance fitness was -0.332 ± 0.13.

On to L22H, for which the abundance fitness was -0.612 ± 0.23.

With F34K, the abundance fitness is 0.28 ± 0.13.

For F34H, the abundance fitness was -0.135 ± 0.18.

For F34D, the abundance fitness is -0.149 ± 0.17.

With E5N, the abundance fitness turned out to be 0.275 ± 0.19.

As for E5L, the abundance fitness is -0.378 ± 0.12.

Regarding D18M, the abundance fitness came out at 0.107 ± 0.11.

Regarding D18G, the abundance fitness worked out at 0.183 ± 0.076.

D18S: the abundance fitness was 0.028 ± 0.093.

Take S6T: the abundance fitness came to 0.148 ± 0.14.

Consider S6D, for which the abundance fitness is -0.523 ± 0.37.

As to M11C, the abundance fitness is -0.085 ± 0.18.

For the variant M11G, the abundance fitness was -0.072 ± 0.11.

Turning to M11N, the abundance fitness was 0.045 ± 0.21.

Take M11P: the abundance fitness was -0.669 ± 0.17.

M11V: the abundance fitness is -0.135 ± 0.12.

For C12A, the abundance fitness is -0.99 ± 0.38.

With C12R, the abundance fitness was -0.586 ± 0.15.

Consider D29E, for which the abundance fitness was 0.017 ± 0.32.

As to D29F, the abundance fitness is -0.128 ± 0.34.

D29L: the abundance fitness is -0.101 ± 0.19.

Take D29M: the abundance fitness is -0.237 ± 0.44.

Take P41T: the abundance fitness is -0.1 ± 0.2.

Take P41Y: the abundance fitness is -0.244 ± 0.22.

For K45N, the abundance fitness is -0.022 ± 0.15.

Consider K45V, for which the abundance fitness was -0.179 ± 0.15.

Take K45W: the abundance fitness was -0.446 ± 0.2.

Regarding K45Y, the abundance fitness is -0.553 ± 0.27.

On to K45D, for which the abundance fitness stood at 0.237 ± 0.2.

For the variant L37H, the abundance fitness is -0.023 ± 0.22.

For L37G, the abundance fitness is -0.134 ± 0.14.

Consider L37W, for which the abundance fitness turned out to be 0.182 ± 0.12.

On to Q2R, for which the abundance fitness is -0.271 ± 0.14.

For the variant V47S, the abundance fitness turned out to be 0.081 ± 0.12.

Take V47A: the abundance fitness is -0.241 ± 0.13.

Turning to V47N, the abundance fitness is -0.052 ± 0.19.

As to L36P, the abundance fitness was -0.613 ± 0.2.

C35N: the abundance fitness was -0.842 ± 0.43.

Consider C35P, for which the abundance fitness is -0.638 ± 0.29.

As for C35G, the abundance fitness was -0.9 ± 0.21.

For C35Q, the abundance fitness was -1.03 ± 0.46.

Consider K20W, for which the abundance fitness is -0.317 ± 0.24.

Take K20P: the abundance fitness was -0.043 ± 0.12.
